# Source: IntAct's records for PubMed 29892012
# B1: Peripheral plasma membrane protein CASK (Homo sapiens), O14936 (parent)
# chain: MADDDVLFEDVYELCEVIGKGPFSVVRRCINRETGQQFAVKIVDVAKFTSSPGLSTEDLKREASICHMLKHPHIVELLETYSSDGMLYMVFEFMDGADLCFEIVKRADAGFVYSEAVASHYMRQILEALRYCHDNNIIHRDVKPHCVLLASKENSAPVKLGGFGVAIQLGESGLVAGGRVGTPHFMAPEVVKREPYGKPVDVWGCGVILFILLSGCLPFYGTKERLFEGIIKGKYKMNPRQWSHISESAKDLVRRMLMLDPAERITVYEALNHPWLKERDRYAYKIHLPETVEQLRKFNARRKLKGAVLAAVSSHKFNSFYGDPPEELPDFSEDPTSSGLLAAERAVSQVLDSLEEIHALTDCSEKDLDFLHSVFQDQHLHTLLDLYDKINTKSSPQIRNPPSDAVQRAKEVLEEISCYPENNDAKELKRILTQPHFMALLQTHDVVAHEVYSDEALRVTPPPTSPYLNGDSPESANGDMDMENVTRVRLVQFQKNTDEPMGITLKMNELNHCIVARIMHGGMIHRQGTLHVGDEIREINGISVANQTVEQLQKMLREMRGSITFKIVPSYRTQSSSCERDSPSTSRQSPANGHSSTNNSVSDLPSTTQPKGRQIYVRAQFEYDPAKDDLIPCKEAGIRFRVGDIIQIISKDDHNWWQGKLENSKNGTAGLIPSPELQEWRVACIAMEKTKQEQQASCTWFGKKKKQYKDKYLAKHNAVFDQLDLVTYEEVVKLPAFKRKTLVLLGAHGVGRRHIKNTLITKHPDRFAYPIPHTTRPPKKDEENGKNYYFVSHDQMMQDISNNEYLEYGSHEDAMYGTKLETIRKIHEQGLIAILDVEPQALKVLRTAEFAPFVVFIAAPTITPGLNEDESLQRLQKESDILQRTYAHYFDLTIINNEIDETIRHLEEAVELVCTAPQWVPVSWVY
# partner: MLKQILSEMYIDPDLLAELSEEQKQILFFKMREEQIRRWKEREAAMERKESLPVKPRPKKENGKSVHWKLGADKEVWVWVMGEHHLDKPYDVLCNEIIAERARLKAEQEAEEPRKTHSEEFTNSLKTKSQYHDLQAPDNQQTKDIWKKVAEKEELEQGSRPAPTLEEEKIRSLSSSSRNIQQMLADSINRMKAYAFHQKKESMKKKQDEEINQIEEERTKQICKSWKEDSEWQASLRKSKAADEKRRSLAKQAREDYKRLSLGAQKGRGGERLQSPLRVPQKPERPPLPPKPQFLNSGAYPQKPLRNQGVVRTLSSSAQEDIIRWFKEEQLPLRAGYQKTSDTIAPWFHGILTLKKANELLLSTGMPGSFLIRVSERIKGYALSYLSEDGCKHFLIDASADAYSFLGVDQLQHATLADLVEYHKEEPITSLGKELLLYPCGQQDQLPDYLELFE
# B2: RNA-binding protein 3 (Homo sapiens), P98179 (parent)
# chain: MSSEEGKLFVGGLNFNTDEQALEDHFSSFGPISEVVVVKDRETQRSRGFGFITFTNPEHASVAMRAMNGESLDGRQIRVDHAGKSARGTRGGGFGAHGRGRSYSRGGGDQGYGSGRYYDSRPGGYGYGYGRSRDYNGRNQGGYDRYSGGNYRDNYDN
# partner: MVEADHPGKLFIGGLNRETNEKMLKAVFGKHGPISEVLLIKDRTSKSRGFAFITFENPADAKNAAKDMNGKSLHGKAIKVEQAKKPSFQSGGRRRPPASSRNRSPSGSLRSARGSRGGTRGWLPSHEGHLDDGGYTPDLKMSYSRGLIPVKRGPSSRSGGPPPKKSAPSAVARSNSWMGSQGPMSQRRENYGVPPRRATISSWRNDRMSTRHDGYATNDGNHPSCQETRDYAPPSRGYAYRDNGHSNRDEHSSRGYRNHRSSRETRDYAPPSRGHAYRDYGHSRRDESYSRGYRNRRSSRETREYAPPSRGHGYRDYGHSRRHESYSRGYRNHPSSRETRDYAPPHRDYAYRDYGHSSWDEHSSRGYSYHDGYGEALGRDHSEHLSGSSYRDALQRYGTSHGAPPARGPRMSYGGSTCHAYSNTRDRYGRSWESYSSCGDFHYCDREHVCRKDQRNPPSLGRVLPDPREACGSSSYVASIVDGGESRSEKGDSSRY
# B3: Protein SSX5 (Homo sapiens), O60225 (parent)
# chain: MNGDDAFVRRPRVGSQIPEKMQKAFDDIAKYFSEKEWEKMKASEKIIYVYMKRKYEAMTKLGFKATLPPFMRNKRVADFQGNDFDNDPNRGNQVEHPQMTFGRLQGIFPKITPEKPAEEGNDSKGVPEASGPQNNGKQLRPSGKLNTSEKVNKTSGPKRGKHAWTHRVRERKQLVIYEEISDPQEDDE
# partner: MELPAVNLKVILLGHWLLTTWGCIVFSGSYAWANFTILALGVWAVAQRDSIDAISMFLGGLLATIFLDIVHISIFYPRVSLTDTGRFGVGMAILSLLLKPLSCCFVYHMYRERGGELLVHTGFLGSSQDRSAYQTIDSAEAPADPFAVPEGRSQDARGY
# B4: Melanoma-associated antigen 8 (Homo sapiens), P43361 (parent)
# chain: MLLGQKSQRYKAEEGLQAQGEAPGLMDVQIPTAEEQKAASSSSTLIMGTLEEVTDSGSPSPPQSPEGASSSLTVTDSTLWSQSDEGSSSNEEEGPSTSPDPAHLESLFREALDEKVAELVRFLLRKYQIKEPVTKAEMLESVIKNYKNHFPDIFSKASECMQVIFGIDVKEVDPAGHSYILVTCLGLSYDGLLGDDQSTPKTGLLIIVLGMILMEGSRAPEEAIWEALSVMGLYDGREHSVYWKLRKLLTQEWVQENYLEYRQAPGSDPVRYEFLWGPRALAETSYVKVLEHVVRVNARVRISYPSLHEEALGEEKGV
# partner: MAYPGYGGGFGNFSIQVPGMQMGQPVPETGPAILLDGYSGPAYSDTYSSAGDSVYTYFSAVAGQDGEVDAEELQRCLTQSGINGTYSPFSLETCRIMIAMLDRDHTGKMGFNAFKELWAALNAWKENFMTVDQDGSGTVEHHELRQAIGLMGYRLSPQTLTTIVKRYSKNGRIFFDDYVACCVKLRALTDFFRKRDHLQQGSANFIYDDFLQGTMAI
# B5: RNA-binding protein 3 (Homo sapiens), P98179 (parent)
# chain: B2 chain
# B6: AP-1 complex subunit sigma-2 (Homo sapiens), P56377 (parent)
# chain: MQFMLLFSRQGKLRLQKWYVPLSDKEKKKITRELVQTVLARKPKMCSFLEWRDLKIVYKRYASLYFCCAIEDQDNELITLEIIHRYVELLDKYFGSVCELDIIFNFEKAYFILDEFLLGGEVQETSKKNVLKAIEQADLLQEEAETPRSVLEEIGLT
# Variants of: B1
# Conditions: with sh24a_human SH2D4A
row,effect of a mutation on the interaction,Variant
1,with no effect,G197R

# Variants of: B2
# Conditions: with rby1a_human RBMY1A1, P0DJD3
row,effect of a mutation on the interaction,Variant
1,with no effect,MSSEEGKLFVGGLNFNTDEQALEDHFSSFGPISEVVVVKDRETQRSRGFGFITFTNPEHASVAMRAMNGESLDGRQIRVDHAGKSARGTRGGGFGAHGRGRSYSRGGGDQGYGSGRYYDSRPGGYGYGYGRSRDYNGRNQGGYDHYSGGNYRDNYDN [R145H]

# Variants of: B3
# Conditions: with atrap_human AGTRAP
row,effect of a mutation on the interaction,Variant
1,disrupting interaction strength,MNGDDAFVRRPRVGSQIPEKMQKAFDDIAKYFSEKEWEKMKASEKIIYVYMKRRYEAMTKLGFKATLPPFMRNKRVADFQGNDFDNDPNRGNQVEHPQMTFGRLQGIFPKITPEKPAEEGNDSKGVPEASGPQNNGKQLRPSGKLNTSEKVNKTSGPKRGKHAWTHRVRERKQLVIYEEISDPQEDDE [K54R]

# Variants of: B4
# Conditions: with gran_human GCA
row,effect of a mutation on the interaction,Variant
1,with no effect,MLLGQKSQRYKAEEGLQAQGEAPGLMDVQIPTAEEQKAASSSSTLIMGTLEEVTDSGSPSPPQSPEGASSSLTVTDSTLWSQSDEGSSSNEEEGPSTSPDPAHLESLFREALDEKVAELVRFLLRKYQIKEPVTKAEMLESVIKNYKNHFPDIFSKASECMQVIFGIDVKEVDPAGHSYILVTCLGLSYDGLLGDDQSTPKTGLLIIVLGMILMEGSCAPEEAIWEALSVMGLYDGREHSVYWKLRKLLTQEWVQENYLEYRQAPGSDPVRYEFLWGPRALAETSYVKVLEHVVRVNARVRISYPSLHEEALGEEKGV [R218C]

# Variants of: B5
# Conditions: with snrpa_human SNRPA
row,effect of a mutation on the interaction,Variant
1,with no effect,MSSEEGKLFVGGLNFNTDEQALEDHFSSFGPISEVVVVKDRETQRSRGFGFITFTNPEHASVAMRAMNGESLDGRQIRVDHAGKSARGTRGGGFGAHGRGRSYSRGGGDQGYGSGRYYDSRPGGYGYGYGRSRDYNGRNQGGYDHYSGGNYRDNYDN [R145H]

# Variants of: B5
# Conditions: with rbmx_human RBMX
row,effect of a mutation on the interaction,Variant
1,with no effect,MSSEEGKLFVGGLNFNTDEQALEDHFSSFGPISEVVVVKDRETQRSRGFGFITFTNPEHASVAMRAMNGESLDGRQIRVDHAGKSARGTRGGGFGAHGRGRSYSRGGGDQGYGSGRYYDSRPGGYGYGYGRSRDYNGRNQGGYDHYSGGNYRDNYDN [R145H]

# Variants of: B6
# Conditions: with ap1g1_human AP1G1, O43747
# Chain of ap1g1_human AP1G1, O43747 (O43747 whole entry): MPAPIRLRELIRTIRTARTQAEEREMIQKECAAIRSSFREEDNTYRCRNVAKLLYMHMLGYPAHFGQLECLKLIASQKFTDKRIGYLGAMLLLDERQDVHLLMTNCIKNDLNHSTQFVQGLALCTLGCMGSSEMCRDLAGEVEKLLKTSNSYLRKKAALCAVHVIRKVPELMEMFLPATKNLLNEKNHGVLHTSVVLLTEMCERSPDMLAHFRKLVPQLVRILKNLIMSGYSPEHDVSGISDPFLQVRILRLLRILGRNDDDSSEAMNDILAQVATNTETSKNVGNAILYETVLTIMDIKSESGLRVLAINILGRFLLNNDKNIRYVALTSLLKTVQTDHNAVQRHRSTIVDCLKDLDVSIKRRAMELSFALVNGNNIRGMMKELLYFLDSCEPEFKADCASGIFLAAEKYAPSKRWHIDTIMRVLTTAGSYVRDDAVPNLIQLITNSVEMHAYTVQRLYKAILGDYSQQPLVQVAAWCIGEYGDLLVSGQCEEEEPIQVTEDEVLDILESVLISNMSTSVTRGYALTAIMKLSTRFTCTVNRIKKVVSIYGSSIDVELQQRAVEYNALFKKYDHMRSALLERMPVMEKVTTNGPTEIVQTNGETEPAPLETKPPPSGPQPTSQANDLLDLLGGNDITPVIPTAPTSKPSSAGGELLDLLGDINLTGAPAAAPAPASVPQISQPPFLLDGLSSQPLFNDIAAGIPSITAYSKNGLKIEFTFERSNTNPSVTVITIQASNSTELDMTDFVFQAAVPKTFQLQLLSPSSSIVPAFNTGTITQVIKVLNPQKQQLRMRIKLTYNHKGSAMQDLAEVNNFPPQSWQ
row,effect of a mutation on the interaction,Variant
1,with no effect,MQFMLLFSCQGKLRLQKWYVPLSDKEKKKITRELVQTVLARKPKMCSFLEWRDLKIVYKRYASLYFCCAIEDQDNELITLEIIHRYVELLDKYFGSVCELDIIFNFEKAYFILDEFLLGGEVQETSKKNVLKAIEQADLLQEEAETPRSVLEEIGLT [R9C]
